Residue numbers refer to the chain shown, from its start. Ends that are not written are not given here. * marks the point of attachment. Biotin = O=C1N[C@H]2[C@H](CS[C@H]2CCCCC(=O)*)N1

The target in one assay is T1, human HER4 protein (human, UniProt Q15303 26-649, limits assumed).
T1 construct: Bought
T1 sequence (looked up): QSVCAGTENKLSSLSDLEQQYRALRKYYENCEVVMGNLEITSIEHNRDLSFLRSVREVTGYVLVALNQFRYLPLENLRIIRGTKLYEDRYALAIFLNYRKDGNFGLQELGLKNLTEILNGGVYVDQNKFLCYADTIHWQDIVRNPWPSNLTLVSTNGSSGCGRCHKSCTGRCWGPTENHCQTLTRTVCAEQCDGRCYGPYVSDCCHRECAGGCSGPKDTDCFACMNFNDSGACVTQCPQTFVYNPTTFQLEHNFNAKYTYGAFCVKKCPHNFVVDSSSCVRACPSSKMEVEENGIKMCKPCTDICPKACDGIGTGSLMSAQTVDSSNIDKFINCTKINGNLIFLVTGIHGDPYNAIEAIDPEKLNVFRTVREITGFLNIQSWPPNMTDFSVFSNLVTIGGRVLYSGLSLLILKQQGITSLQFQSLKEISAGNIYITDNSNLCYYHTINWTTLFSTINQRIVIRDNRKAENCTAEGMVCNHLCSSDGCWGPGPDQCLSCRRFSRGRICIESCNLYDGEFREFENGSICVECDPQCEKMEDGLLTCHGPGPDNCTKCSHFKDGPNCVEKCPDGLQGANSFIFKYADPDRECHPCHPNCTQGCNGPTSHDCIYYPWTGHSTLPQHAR
The assay is described as follows: ELISA, antigen coated at 0.2 µg/well.

The target of another assay is T2, HER2-ECD protein of rat (rat, UniProt P06494 23-654).
T2 construct: extracellular domain; Bought; also called Rat-HER2-ECD
Nature of the assay: ELISA, antigen coated at 0.2 µg/well.

A further assay has as its target T3, human HER3 protein (human, UniProt P21860 20-643).
T3 construct: Bought
Nature of the assay: ELISA, antigen coated at 0.2 µg/well.

The target of the next assay is T4, human HER1 protein (human, UniProt P00533 25-645).
T4 construct: Bought
Nature of the assay: ELISA, antigen coated at 0.2 µg/well.

Assay [1] addresses T5, HER2-ECD protein of cynomolgus monkey (cynomolgus monkey, UniProt A0A2K5WUT7 1-622).
T5 construct: extracellular domain; Bought; also called Cyno-HER2-ECD
The assay is described as follows: ELISA, Cyno-HER2-ECD coated at 0.2 µg/well.

The target in assay [2] is T6, human HER2-ECD protein (1 to 652 amino acids of NP_004439.2, 6xHis tag at the C-terminus) (human, UniProt P04626 23-652).
T6 construct: Homemade, expressed in CHO cells from HER2-ECD-His-pTT5; also called HER2-ECD-His; HER2-ECD-fl(1-652)
The assay is described as follows: Biacore, antibody captured on Protein A chip, HER2-ECD as analyte.

The target of assay [3] is T7, HER2 on tumor cells with high HER2 expression (breast cancer cells BT474; SKBR3) (human, UniProt P04626 23-1255).
T7 construct: whole, on cells; Endogenous full-length receptor on human tumor cell lines; also called breast cancer cells BT474 (with high HER2 expression on the cell surface); HER2 in BT474 and SKBR3 cells
The assay is described as follows: FACS on BT474 cells.

Assay [4] concerns the target T6, human HER2-ECD protein (1 to 652 amino …). Nature of the assay: ELISA on coated human HER2-ECD; humanized 19H6-Hu.
Assay [5] has the same target. The assay is described as follows: ELISA on coated protein labelled HER2 on the sheet (taken as the human HER2-ECD of paragraph 112), positive control of the selectivity assay of Example 7.
Assay [6] has the same target. The assay is described as follows: ELISA on coated human HER2-ECD; humanized 19H6-graft.
Another assay deals with T8, HER2-ECD-V505A (human, UniProt P04626 23-652).
T8 construct: Site-directed mutant of HER2-ECD-His-pTT5, expressed in HEK293E
Nature of the assay: ELISA on coated HER2-ECD-V505A (printed HER2-ECD-E505A); V505A mutant (printed E505A).

A further assay addresses T9, HER2-ECD-DI-III.
T9 construct: Truncated human HER2-ECD construct; also called HER2-ECD-DI-DIII(1-510)
T9 receptor fragment: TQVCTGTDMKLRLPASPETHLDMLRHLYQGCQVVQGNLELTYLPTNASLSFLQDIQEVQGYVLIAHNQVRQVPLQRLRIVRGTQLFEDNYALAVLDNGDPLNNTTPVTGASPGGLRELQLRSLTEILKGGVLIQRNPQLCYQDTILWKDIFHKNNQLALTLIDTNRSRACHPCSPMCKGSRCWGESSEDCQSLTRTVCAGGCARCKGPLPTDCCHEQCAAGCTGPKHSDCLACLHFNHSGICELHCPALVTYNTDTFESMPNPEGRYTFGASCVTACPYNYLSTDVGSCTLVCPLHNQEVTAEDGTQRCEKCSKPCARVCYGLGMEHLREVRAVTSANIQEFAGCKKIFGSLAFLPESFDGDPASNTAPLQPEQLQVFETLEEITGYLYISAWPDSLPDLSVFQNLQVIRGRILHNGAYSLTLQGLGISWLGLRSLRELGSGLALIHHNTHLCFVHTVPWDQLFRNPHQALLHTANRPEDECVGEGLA
The assay is described as follows: Western blot by the method of Example 3.2 (reduced-denatured protein).

The target in assay [7] is T10, peptide 4-3, bio-HTAARPEDECVGEGLA
T10 peptide: Biotin-HTAARPEDECVGEGLA
Nature of the assay: peptide ELISA, alanine scan.

Assay [8] has as its target T11, peptide 4-9, bio-HTANRPEDEAVGEGLA
T11 peptide: Biotin-HTANRPEDEAVGEGLA
The assay is described as follows: peptide ELISA, alanine scan.

The target of assay [9] is T12, peptide 4-8, bio-HTANRPEDACVGEGLA
T12 peptide: Biotin-HTANRPEDACVGEGLA
The assay is described as follows: peptide ELISA, alanine scan.

The target in assay [10] is T13, peptide 4-5, bio-HTANRAEDECVGEGLA
T13 peptide: Biotin-HTANRAEDECVGEGLA
The assay is described as follows: peptide ELISA, alanine scan.

The target of assay [11] is T14, peptide 4-4, bio-HTANAPEDECVGEGLA
T14 peptide: Biotin-HTANAPEDECVGEGLA
The assay is described as follows: peptide ELISA, alanine scan.

Assay [12] concerns the target T15, peptide 4-1, bio-ATANRPEDECVGEGLA
T15 peptide: Biotin-ATANRPEDECVGEGLA
Nature of the assay: peptide ELISA, alanine scan.

Assay [13] deals with T16, peptide 4-2, bio-HAANRPEDECVGEGLA
T16 peptide: Biotin-HAANRPEDECVGEGLA
The assay is described as follows: peptide ELISA, alanine scan.

Assay [14] addresses T17, peptide 4-6, bio-HTANRPADECVGEGLA
T17 peptide: Biotin-HTANRPADECVGEGLA
Nature of the assay: peptide ELISA, alanine scan.

Assay [15] addresses T6, human HER2-ECD protein (1 to 652 amino …). The assay is described as follows: competitive ELISA on coated human HER2-ECD; competitor: biotinylated 19H6 (10 ng/mL, mixed 1:1).
The target in assay [16] is T18, peptide 4-10 (V505A), bio-HTANRPEDECAGEGLA
T18 peptide: Biotin-HTANRPEDECAGEGLA
The assay is described as follows: ELISA on alanine scan biotin peptides.

The target of assay [17] is T19, peptide 4-12 (L509A), bio-HTANRPEDECVGEGAA
T19 peptide: Biotin-HTANRPEDECVGEGAA
The assay is described as follows: ELISA on alanine scan biotin peptides.

For assay [18], the target named is T20, peptide 4-7 (D502A), bio-HTANRPEAECVGEGLA
T20 peptide: Biotin-HTANRPEAECVGEGLA
The assay is described as follows: ELISA on alanine scan biotin peptides.

The target of assay [19] is T21, peptide 4-11 (E507A), bio-HTANRPEDECVGAGLA
T21 peptide: Biotin-HTANRPEDECVGAGLA
Nature of the assay: ELISA on alanine scan biotin peptides.

Another assay addresses T22, HER2-ECD-E507A (human, UniProt P04626 23-652).
T22 construct: Site-directed mutant of HER2-ECD-His-pTT5, expressed in HEK293E
Nature of the assay: ELISA on coated HER2-ECD-E507A; E507A mutant.

In a further assay the target is T23, 495-510.
T23 peptide: HTANRPEDECVGEGLA
Nature of the assay: peptide ELISA.

The target in assay [20] is T24, peptide 3-4, bio-RPEDECVGEGLA (499-510).
T24 peptide: Biotin-RPEDECVGEGLA
Nature of the assay: peptide ELISA.

Assay [21] concerns the target T6, human HER2-ECD protein (1 to 652 amino …). Nature of the assay: ELISA on coated human HER2-ECD.
The target in another assay is T25, HER2-ECD-D502A (human, UniProt P04626 23-652).
T25 construct: Site-directed mutant of HER2-ECD-His-pTT5, expressed in HEK293E
Nature of the assay: ELISA on coated HER2-ECD-D502A; D502A mutant.

Assay [22] has as its target T26, peptide HA-21, bio-HQALLHTANRPEDECVGEGLA (490-510) (N-terminal biotin).
T26 peptide: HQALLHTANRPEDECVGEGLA
Nature of the assay: ELISA on biotin peptides of HER2-ECD DIII.

Assay [23] addresses T6, human HER2-ECD protein (1 to 652 amino …). Nature of the assay: ELISA on coated HER2-ECD protein; wild-type HER2-ECD.
Assay [24] shares this target. Nature of the assay: ELISA on coated human HER2-ECD; chimeric 19H6-ch, FIG. 22 experiment.

B1: humanized antibody 19H6-Hu (antibody, human IgG1, kappa, V domains shown)
VH: QVQLVQSGAEVKKPGASVKVSCKGSGYTFTDYAIHWVRQAPGQSLEWIGVFSIYYENINYNQKFKGRATMTVDKSTSTAYMELRSLRSDDTAVYYCARRDGGTINYWGQGTLVTVSS
VL: DVVMTQSPLSLPVTLGQPASISCRSSQSLVHSNGNTYLHWYQQRPGQSPRLLIYKVSNRFSGVPDRFSGSGSGTDFTLKISRVEAEDVGVYFCSQSTHIPWTFGQGTKVEIKR
Take B1: the binding result with human HER4 protein, in the assay with HER2-ECD protein of rat, with human HER3 protein and in the assay with human HER1 protein was “no binding” throughout. Also, the EC50 in [1] was found to be 0.1 nM; in assay [3], 1.9 nM; in assay [4] it was 0.06 nM. The molecule further gave a Kd in assay [2] of 0.713 nM. In addition, the koff in assay [2] was determined as 0.000111 s⁻¹. This molecule also yielded an association rate constant (kon) in assay [2] of 155000 M⁻¹ s⁻¹. For the same molecule, in assay [5], the concentration for a half-maximal effect (EC50 (read off the curve)) was approximately 0.1 nM.

B2: humanized antibody 19H6-graft (antibody, human IgG1, kappa, V domains shown)
VH: B1 VH with G24A, S44G, I48M, A68V, V72T, K74T
VL: B1 VL with Y41F, L51R, F92Y
notes: Constant regions tied by the words 'The same constant region as that of 19H6-ch'
In assay [6], B2 came in with a 50% effective concentration (EC50) of 0.5 nM.

B3: murine anti-human HER2 monoclonal antibody 19H6 (antibody, V domains shown)
VH: QVQLQQSGPELVRPGESVKISCKGSGYTFTDYAIHWVKQSHAKSLEWIGVFSIYYENINYNQKFKGKATMTVDKSSSTAYLDLARLTSEDSAIYYCARRDGGTINYWGQGTSVTVSS
VL: DVVMTQTPLSLPVSLGDQASISCRSSQSLVHSNGNTYLHWYLQKPGQSPKLLIYKVSNRFSGVPDRFSGSGSGTDFTLKISRVEAEDLGVYFCSQSTHIPWTFGGGTKLEIK
notes: Hybridoma-derived mouse antibody purified on Protein G; also called murine antibody 19H6
Take B3: the concentration for a half-maximal effect (EC50) came out at 0.038 nM with HER2-ECD-V505A; 0.867 nM with HER2-ECD-E507A; 0.28 nM in [21]; 0.05 nM in the assay with HER2-ECD-D502A; 1.1 nM in [3]; 0.041 nM in assay [23]. Further, the binding result (in the assay with HER2-ECD-DI-III; in assay [7]; in assay [8]; in assay [9]; in [10]; in [11]) was “binds” each time. Further, the binding result in [12] is “binds”; in [13], “binds”; in assay [14], “binds”; in assay [16], “no binding”; in [17] it was “binds”; in [18] it was “no binding”. Further, the binding result in assay [19] was “no binding”; in the assay with 495-510 it was “binds”; in [20] it was “binds”; in assay [22], “binds”. Also, the “IC50 (read off the curve)” value in assay [15] is approximately 1 nM.

B4: chimeric antibody 19H6-ch (antibody, human IgG1, kappa, V domains shown)
VH: B3 VH
VL: B1 VL with S7T, T14S, Q17D, P18Q, Q42L, R44K, R50K, V88L, Q105G, V109L
notes: 19H6 variable regions spliced with human IgG1 and kappa constant regions; expressed in HEK-293E
Consider B4, for which the EC50 was found to be 0.1 nM in [21], 0.05 nM in [24] and 1.5 nM in assay [3].

These data come from US20210309759A1 (SUNSHINE GUOJIAN PHARMACEUTICAL SHANGHAI, published 2021).
